Experimental findings from the supplement of paper PMC11780869 are described below.

The data set relates to Bacillus subtilis. The data set can be described thus: cleaved RNA product abundance (RNA/gDNA barcode ratio) relative to median wild-type variant (ratio to wild type); higher = more accumulation of the downstream cleavage product. The settings on record: experiment (reporter, strain, medium): exp 8a: truncated aprE reporter, strain BJT201 with 2% xylose (RNase J1 expressed); cleavage site: glnRA (positions -5 to +31 mutated). Put shortly: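 Truncated aprE or tetM reporter mRNAs with barcoded RNase Y cleavage-site windows, mutagenized from oligos at a 9% error rate, sat in the B. subtilis chromosome. Cells grew in LB at 37°C from OD600 0.0003 to 0.3. Gel-selected cleaved RNA was reverse transcribed and its barcodes sequenced with those from genomic DNA, collapsing by UMI. Cleaved product abundance equals the RNA:gDNA barcode ratio per construct over the median construct with the unmutated site.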
Turning to “CGACATGTCCCGCTTCTTTCATTAACCCGTTAGCAACTGTTTTGCTATATACATTTACATTTTAAGAGGAGGAAT”, the “cleaved RNA product abundance” value came out at 2.01.
“CGACATGTCCCGCTTCTTTCATTAACCCGTTAGCAACTGTTTTGCTATATACATTTACCATTTAAGAGGAGGAAT”: the “cleaved RNA product abundance” value was determined as 1.41.
Consider “CGACATGTCCCGCTTCTTTCATTAACCCGTTAGCAACTGTTTTGCTATATACATTTACCTTTTAAGAGGAGGAAT”, for which the “cleaved RNA product abundance” value worked out at 0.819.
For “CGACATGTCCCGCTTCTTTCATTAACCCGTTAGCAACTGTTTTGCTATATACATTTACTTTTTAAGAGGAGGAAT”, the “cleaved RNA product abundance” value is 1.04.
Regarding “CGACATGTCCCGCTTCTTTCATTAACCCGTTAGCAACTGTTTTGCTATATACCTATACCTTTTAAGAGGAGGAAT”, the “cleaved RNA product abundance” value is 0.789.
In the case of “CGACATGTCCCGCTTCTTTCATTAACCCGTTAGCAACTGTTTTGCTATATAGATTTACCTTTTAAGAGGAGGAAT”, the “cleaved RNA product abundance” value was found to be 0.53.
For the sequence “CGACATGTCCCGCTTCTTTCATTAACCCGTTAGCAACTGTTTTGCTATATATATTTACCTTTTAAGAGGAGGAAT”, the “cleaved RNA product abundance” value was determined as 1.16.
Take “CGACATGTCCCGCTTCTTTCATTAACCCGTTAGCAACTTTTTTGCTATATACATTTACCTTTTAAGAGGAGGAAT”: the “cleaved RNA product abundance” value is 0.909.
As for “CGACATGTCCCGCTTCTTTCATTAACCCGTTAGCAAGTGTTTTGCTATATACATTTACCTTTTAAGAGGAGGAAT”, the “cleaved RNA product abundance” value worked out at 0.522.
“CGACATGTCCCGCTTCTTTCATTAACCCGTTAGTAACTGTTTTGCTATATACATTTACCTTTTAAGAGGAGGAAT”: the “cleaved RNA product abundance” value was determined as 0.255.
“CGACATGTCCCGCTTCTTTCATTAACCCTTTAGCAACTGTTTTGCTATATACATTTACCTTTTAAGAGGAGGAAT”: the “cleaved RNA product abundance” value worked out at 0.181.
With “CGACATGTCCCGCTTCTTTCATTAAGCCGTAAGCAACTGTTTTGCTATATACATTTACCTTTTAAGAGGAGGAAT”, the “cleaved RNA product abundance” value was 0.519.
As to “CGACATGTCCCGCTTCTTTCATTAAGCCGTTACCAACTGTTTTGCTATATACATTTACCTTTTAAGAGGAGGAAT”, the “cleaved RNA product abundance” value was 0.21.
In the case of “CGACATGTCCCGCTTCTTTCATTAAGCCGTTAGCAACTGTTTTGCTATATACATTTACCTTTTAAGAGGAGGAAT” it was 0.855; in that of “CGACATGTCCCGCTTCTTTCATTAAGCCGTTAGCAACTGTTTTGTTATATACATTTACCTTTTAAGAGGAGGAAT”, 0.364.
For “CGACATGTCCCGCTTCTTTCATTAAGCCGTTATCAACTGTTTTGCTATATACATTTACCTTTTAAGAGGAGGAAT”, the “cleaved RNA product abundance” value is 0.21.
For the sequence “CGACATGTCCCGCTTCTTTCATTAAGCCGTTATCAACTGTTTTGCTATATTCATTTACCTTTTAAGAGGAGGAAT”, the “cleaved RNA product abundance” value stood at 0.0648.
Regarding “CGACATGTCCCGCTTCTTTCATTAATACATTAACAACTGTTTTGCTATATACATTTACCTTTTAAGAGGAGGAAT”, the “cleaved RNA product abundance” value is 0.235.
In the case of “CGACATGTCCCGCTTCTTTCATTAATACATTAGCAACTGTTTTGCTATATACATTTACCTTTTAAGAGGAGGAAT” it was 0.748; in that of “CGACATGTCCCGCTTCTTTCATTAATACATTAGCGACTTTTTTGCTATATACACTTACCTTTTAAGAGGAGGAAT”, 0.352.
In the case of “CGACATGTCCCGCTTCTTTCATTAATACGATAGCAACTGTTTTGCTATATACATTTACCTTTTAAGAGGAGGAAT”, the “cleaved RNA product abundance” value came out at 0.935.
For the sequence “CGACATGTCCCGCTTCTTTCATTAATACGTAAGCAACTGTTTTGCTATATACATTTACCTTTTAAGAGGAGGAAT”, the “cleaved RNA product abundance” value worked out at 0.225.
“CGACATGTCCCGCTTCTTTCATTAATACGTTAACAACTGTTTTGCTATATACATTTACCTTTTAAGAGGAGGAAT”: the “cleaved RNA product abundance” value turned out to be 0.195.
As for “CGACATGTCCCGCTTCTTTCATTAATACGTTACCAACTGTTTTGCTATATACATTTACCTTTTAAGAGGAGGAAT”, the “cleaved RNA product abundance” value was determined as 0.215.
As to “CGACATGTCCCGCTTCTTTCATTAATACGTTAGAAACTGTTTTGCTATATACATTTACCTTTTAAGAGGAGGAAT”, the “cleaved RNA product abundance” value came out at 0.292.
Consider “CGACATGTCCCGCTTCTTTCATTAATACGTTAGCAAATGTTTTGCTATATACATTTACCTTTTAAGAGGAGGAAT”, for which the “cleaved RNA product abundance” value was found to be 1.26.
On to “CGACATGTCCCGCTTCTTTCATTAATACGTTAGCAACTATTTTGCTATATACATTTACCTTTTAAGAGGAGGAAT”, for which the “cleaved RNA product abundance” value was 1.33.
In the case of “CGACATGTCCCGCTTCTTTCATTAATACGTTAGCAACTGATTTGCTATATACATTTACCTTTTAAGAGGAGGAAT”, the “cleaved RNA product abundance” value worked out at 1.24.
Consider “CGACATGTCCCGCTTCTTTCATTAATACGTTAGCAACTGTTATGCTATATACATTTACCTTTTAAGAGGAGGAAT”, for which the “cleaved RNA product abundance” value was 0.886.
Turning to “CGACATGTCCCGCTTCTTTCATTAATACGTTAGCAACTGTTTAGCTATATACATTTACCTTTTAAGAGGAGGAAT”, the “cleaved RNA product abundance” value stood at 0.376.
Turning to “CGACATGTCCCGCTTCTTTCATTAATACGTTAGCAACTGTTTTACTATATACATTTACCTTTTAAGAGGAGGAAT”, the “cleaved RNA product abundance” value worked out at 0.547.
Regarding “CGACATGTCCCGCTTCTTTCATTAATACGTTAGCAACTGTTTTGATATATACATTTACCTTTTAAGAGGAGGAAT”, the “cleaved RNA product abundance” value stood at 0.527.
As for “CGACATGTCCCGCTTCTTTCATTAATACGTTAGCAACTGTTTTGCCATATACATTTACCTTTTAAGAGGAGGAAT”, the “cleaved RNA product abundance” value came to 0.23.
In the case of “CGACATGTCCCGCTTCTTTCATTAATACGTTAGCAACTGTTTTGCTAAATACATTTACCTTTTAAGAGGAGGAAT”, the “cleaved RNA product abundance” value amounted to 0.266.
For “CGACATGTCCCGCTTCTTTCATTAATACGTTAGCAACTGTTTTGCTACATACATTTACCTTTTAAGAGGAGGAAT”, the “cleaved RNA product abundance” value was 0.381.
As to “CGACATGTCCCGCTTCTTTCATTAATACGTTAGCAACTGTTTTGCTATAAACATTTACCTTTTAAGAGGAGGAAT”, the “cleaved RNA product abundance” value stood at 0.505.
Consider “CGACATGTCCCGCTTCTTTCATTAATACGTTAGCAACTGTTTTGCTATATAAATTTACCTTTTAAGAGGAGGAAT”, for which the “cleaved RNA product abundance” value worked out at 1.02.
Take “CGACATGTCCCGCTTCTTTCATTAATACGTTAGCAACTGTTTTGCTATATACATGTACCTTTTAAGAGGAGGAAT”: the “cleaved RNA product abundance” value was 0.369.
For “CGACATGTCCCGCTTCTTTCATTAATACGTTAGCAACTGTTTTGCTATATACATTCACCTTTTAAGAGGAGGAAT”, the “cleaved RNA product abundance” value stood at 0.695.
“CGACATGTCCCGCTTCTTTCATTAATACGTTAGCAACTGTTTTGCTATATACATTTACCATTTAAGAGGAGGAAT”: the “cleaved RNA product abundance” value was found to be 0.353.
On to “CGACATGTCCCGCTTCTTTCATTAATACGTTAGCAACTGTTTTGCTATATACATTTACCTTTTAAGAGGAGGAAT”, for which the “cleaved RNA product abundance” value was 0.97.
In the case of “CGACATGTCCCGCTTCTTTCATTAATACGTTAGCAACTGTTTTGCTATATACATTTACTTTTTAAGAGGAGGAAT” it was 0.472; in that of “CGACATGTCCCGCTTCTTTCATTAATACGTTAGCAACTGTTTTGCTATATACATTTATCTTTTAAGAGGAGGAAT”, 1.51.
In the case of “CGACATGTCCCGCTTCTTTCATTAATACGTTAGCAACTGTTTTGCTATATACGTTTACCTTTTAAGAGGAGGAAT”, the “cleaved RNA product abundance” value was 0.284.
The figure for “CGACATGTCCCGCTTCTTTCATTAATACGTTAGCAACTGTTTTGCTATATAGATTTACCTTTTAAGAGGAGGAAT” is 0.956; for “CGACATGTCCCGCTTCTTTCATTAATACGTTAGCAACTGTTTTGCTATATATATTTACCTTTTAAGAGGAGGAAT” it is 1.83.
As to “CGACATGTCCCGCTTCTTTCATTAATACGTTAGCAACTGTTTTGCTATATCCATTTACCTTTTAAGAGGAGGAAT”, the “cleaved RNA product abundance” value amounted to 0.193.
Regarding “CGACATGTCCCGCTTCTTTCATTAATACGTTAGCAACTGTTTTGCTATTTACATTTACCTTTTAAGAGGAGGAAT”, the “cleaved RNA product abundance” value came to 0.232.
Consider “CGACATGTCCCGCTTCTTTCATTAATACGTTAGCAACTGTTTTGTTATATACATTTACCTTTTAAGAGGAGGAAT”, for which the “cleaved RNA product abundance” value was found to be 0.372.
Take “CGACATGTCCCGCTTCTTTCATTAATACGTTAGCAACTGTTTTTCTATATACATTTACCTTTTAAGAGGAGGAAT”: the “cleaved RNA product abundance” value came to 0.455.
As to “CGACATGTCCCGCTTCTTTCATTAATACGTTAGCAACTTTTTTGCTATATACATTTACCTTTTAAGAGGAGGAAT”, the “cleaved RNA product abundance” value is 0.721.
Turning to “CGACATGTCCCGCTTCTTTCATTAATACGTTAGCAAGTGTTTTGCTATATACATTTACCTTTTAAGAGGAGGAAT”, the “cleaved RNA product abundance” value stood at 0.882.
As to “CGACATGTCCCGCTTCTTTCATTAATACGTTAGCAATAGTTTTGCTATATACATTTACCTTTTAAGAGGAGGAAT”, the “cleaved RNA product abundance” value was 0.874.
As to “CGACATGTCCCGCTTCTTTCATTAATACGTTAGCAATTGTTTTGCTATATACATTTACCTTTTAAGAGGAGGAAT”, the “cleaved RNA product abundance” value came out at 0.823.
As for “CGACATGTCCCGCTTCTTTCATTAATACGTTAGCATCTGTTTTGCTATATACATTTACCTTTTAAGAGGAGGAAT”, the “cleaved RNA product abundance” value turned out to be 0.87.
Regarding “CGACATGTCCCGCTTCTTTCATTAATACGTTAGCTACTGTTTTGCTATATACATTTACCTTTTAAGAGGAGGAAT”, the “cleaved RNA product abundance” value was 0.562.
In the case of “CGACATGTCCCGCTTCTTTCATTAATACGTTAGTAACTGTTTTGCTAAATACATTTACCTTTTAAGAGGAGGAAT”, the “cleaved RNA product abundance” value worked out at 0.285.
With “CGACATGTCCCGCTTCTTTCATTAATACGTTAGTAACTGTTTTGCTATATACATTTACCTTTTAAGAGGAGGAAT”, the “cleaved RNA product abundance” value came out at 0.334.
Regarding “CGACATGTCCCGCTTCTTTCATTAATACGTTATCAACTGTTTTGCTATATACATTTACCTTTTAAGAGGAGGAAT”, the “cleaved RNA product abundance” value came to 0.281.
In the case of “CGACATGTCCCGCTTCTTTCATTAATACGTTCGCAACTGTTTTGCTATATACATTTACCTTTTAAGAGGAGGAAT” it was 0.216; in that of “CGACATGTCCCGCTTCTTTCATTAATACGTTTGCAACTGTTTTGCTATATACATTTACCTTTTAAGAGGAGGAAT”, 0.769.
